# Measured values taken from article PMC10147923, “Pain-causing stinging nettle toxins target TMEM233 to modulate NaV1.7 function” (Nature Communications, 2023).
# Where “and” joins values, the source holds several entries; their conditions need not be identical. Identical values can stand only once.
# B1: TMEM233 (protein)
# chain: MSQYAPSPDFKRALDSSPEANTEDDKTEEDVPMPKNYLWLTIVSCFCPAYPINIVALVFSIMSLNSYNDGDYEGARRLGRNAKWVAIASIIIGLLIIGISCAVHFTRNA
# What was measured:
# NaV1.7 [1] = target: T1, NaV1.7 (Homo sapiens, UniProt Q15858); type: cell-based
# Experimental: To determine the voltage dependence of slow inactivation, HEK293-NaV1.7 cells were held at −120 mV and peak current determined by an initial 20 ms pulse to 0 mV. Following a series of 15,000 ms step pulses ranging from −120 to 0 mV in 20 mV increments, a subsequent 50 ms test pulse to 0 mV, preceded by a 50 ms step to −120 mV to remove fast inactivation, was used to determine the remaining current. The proportion of slow-inactivated channels was determined by normalizing peak current from the test pulse to the initial depolarization. A Boltzmann equation was fit to the current data, plotted as a function of voltage, to determine the V50 as well as the minimum proportion of activatable channels.
# NaV1.7 [2] = target: T1, NaV1.7; type: cell-based; conditions: Fig 6d
# Experimental: Current-voltage (IV) curves were determined in HEK-NaV1.7 cells, in the absence and presence of TMEM233, from a series of step pulses (500 ms) ranging from −110 to +55 mV (5 mV increments, repetition interval 5 s) before and after incubation with ExTxA (1 μM) from a holding potential of −90 mV. Currents were converted to conductance (G) using G = I/(V − Vrev), with Vrev being the reversal potential, plotted against voltage and fitted with a Boltzmann equation to obtain GV (conductance-voltage) curves. Voltage dependence of steady-state fast inactivation was determined by a subsequent 10 ms pulse to −20 mV immediately following the 500 ms depolarization step detailed above to assess the available non-inactivated channels.
# hNaV1.7/TMEM233 = test: Persistent current, CHO hNaV1.7/TMEM233; type: cell-based, human; conditions: Supplementary Fig 1e
# TMEM233 = TMEM233 (Homo sapiens, UniProt B4DJY2); test: Currents in Cos-1 cells transfected with TMEM233 only; type: cell-based
# Experimental: Whole-cell patch clamp experiments involving HEK293, COS-1, CHO, ND7/23, F11, SH-SY5Y and TE-671 cells were performed on a QPatch II automated electrophysiology platform (Sophion Bioscience, Ballerup, Denmark) as previously described. Cells at approximately 70–80% confluency were harvested from T75 flasks using TrypLE Express at 37 °C for 2–5 min and resuspended in DMEM with 25 mM HEPES (Sigma-Aldrich, NSW, Australia), 100 U/mL Penicillin-Streptomycin (Gibco) and 40 µg/mL trypsin inhibitor from Glycine max (soybean) (Sigma Aldrich) prior to recovery on a QStirrer (Sophion) for 30 min. 16-channel patch plates with a patch hole diameter of 1 μm and resistance of 2 ± 0.02 MΩ were used. Cell positioning and sealing parameters were as follows: positioning pressure −60 mbar, minimum seal resistance 0.1 GΩ, holding potential −100 mV, holding pressure −20 mbar. Whole-cell currents were filtered at 5 kHz and acquired at 25 kHz. Series resistance compensation was used and set to 70%.
# NaV1.7 [3] = target: T1, NaV1.7; test: Effect of TMEM233 co-expression on ramp currents; type: cell-based; conditions: Fig 6j
# Experimental: The holding potential was −90 mV. After a 50 ms pulse to −100 mV, ramps from −100 mV to +20 mV at a rate of 0.2 and 1.0 mV/ms were applied before and after ExTxA (100 nM) addition.
# NaV1.7 [4] = target: T1, NaV1.7; test: Effect of TMEM233 co-expression on use-dependence; type: cell-based; conditions: Fig 6l; for Use-dependence, predicted (LS) mean: n = 6
# Experimental: Use-dependence experiments were performed on the Patchliner Quattro (Nanion Technologies GmbH, Munich, Germany) using an EPC 10 USB Quadro Patch Clamp Amplifier (HEKA Elektronik GmbH, Lambrecht/Pfalz, Germany) and PatchControlHT 2.01.30 and PatchMaster v2x90.4 beta softwares (HEKA Elektronik GmbH, Lambrecht/Pfalz, Germany). Cells at approximately 70–80% confluency were harvested from T75 flasks using Accutase (Thermofisher, Massachusetts, USA) at room temperature for 2–5 min and resuspended in high-glucose Dulbecco’s Modified Eagle Medium (DMEM) (Sigma-Aldrich, New South Wales, Australia) with 15 mM HEPES (Sigma-Aldrich, NSW, Australia) prior to recovery in the cell hotel of the Patchliner for 10 min. ECS contained (in mM): NaCl 140, KCl 4, CaCl2 2, MgCl2 1, HEPES 10, glucose 5. The pH was adjusted to 7.4 with NaOH, and the osmolarity was 298 mOsm. ICS contained (in mM): CsCl 50, NaCl 10, CsF 60, EGTA 20, HEPES 10. The pH was adjusted to 7.2 with CsOH, and the osmolarity was 285 mOsm. A seal enhancer was used containing (in mM): NaCl 80, KCl 3, MgCl2 10, CaCl2 35, HEPES Na^+ salt 10. The pH was adjusted to 7.4 with HCl, and the osmolarity was 298 mOsm. The seal enhancer was washed off before starting the experiments. HEK293 cells stably expressing hNaV1.7/ β1 or hNaV1.7/ β1/C-HA TMEM233 were used. Consecutive series of 30 depolarizing 20 ms pulses from −90 mV to −20 mV were applied with frequencies of 1 Hz, 2 Hz, 5 Hz, 10 Hz, and 20 Hz. After the experiment ExTxA (100 nM) was applied to confirm TMEM233 expression. The amplitude of the test current was normalized to the current induced by the first pulse of its series, with the last test pulse plotted as a function of frequency for statistical analysis.
# T1 sequence (Q15858 whole entry): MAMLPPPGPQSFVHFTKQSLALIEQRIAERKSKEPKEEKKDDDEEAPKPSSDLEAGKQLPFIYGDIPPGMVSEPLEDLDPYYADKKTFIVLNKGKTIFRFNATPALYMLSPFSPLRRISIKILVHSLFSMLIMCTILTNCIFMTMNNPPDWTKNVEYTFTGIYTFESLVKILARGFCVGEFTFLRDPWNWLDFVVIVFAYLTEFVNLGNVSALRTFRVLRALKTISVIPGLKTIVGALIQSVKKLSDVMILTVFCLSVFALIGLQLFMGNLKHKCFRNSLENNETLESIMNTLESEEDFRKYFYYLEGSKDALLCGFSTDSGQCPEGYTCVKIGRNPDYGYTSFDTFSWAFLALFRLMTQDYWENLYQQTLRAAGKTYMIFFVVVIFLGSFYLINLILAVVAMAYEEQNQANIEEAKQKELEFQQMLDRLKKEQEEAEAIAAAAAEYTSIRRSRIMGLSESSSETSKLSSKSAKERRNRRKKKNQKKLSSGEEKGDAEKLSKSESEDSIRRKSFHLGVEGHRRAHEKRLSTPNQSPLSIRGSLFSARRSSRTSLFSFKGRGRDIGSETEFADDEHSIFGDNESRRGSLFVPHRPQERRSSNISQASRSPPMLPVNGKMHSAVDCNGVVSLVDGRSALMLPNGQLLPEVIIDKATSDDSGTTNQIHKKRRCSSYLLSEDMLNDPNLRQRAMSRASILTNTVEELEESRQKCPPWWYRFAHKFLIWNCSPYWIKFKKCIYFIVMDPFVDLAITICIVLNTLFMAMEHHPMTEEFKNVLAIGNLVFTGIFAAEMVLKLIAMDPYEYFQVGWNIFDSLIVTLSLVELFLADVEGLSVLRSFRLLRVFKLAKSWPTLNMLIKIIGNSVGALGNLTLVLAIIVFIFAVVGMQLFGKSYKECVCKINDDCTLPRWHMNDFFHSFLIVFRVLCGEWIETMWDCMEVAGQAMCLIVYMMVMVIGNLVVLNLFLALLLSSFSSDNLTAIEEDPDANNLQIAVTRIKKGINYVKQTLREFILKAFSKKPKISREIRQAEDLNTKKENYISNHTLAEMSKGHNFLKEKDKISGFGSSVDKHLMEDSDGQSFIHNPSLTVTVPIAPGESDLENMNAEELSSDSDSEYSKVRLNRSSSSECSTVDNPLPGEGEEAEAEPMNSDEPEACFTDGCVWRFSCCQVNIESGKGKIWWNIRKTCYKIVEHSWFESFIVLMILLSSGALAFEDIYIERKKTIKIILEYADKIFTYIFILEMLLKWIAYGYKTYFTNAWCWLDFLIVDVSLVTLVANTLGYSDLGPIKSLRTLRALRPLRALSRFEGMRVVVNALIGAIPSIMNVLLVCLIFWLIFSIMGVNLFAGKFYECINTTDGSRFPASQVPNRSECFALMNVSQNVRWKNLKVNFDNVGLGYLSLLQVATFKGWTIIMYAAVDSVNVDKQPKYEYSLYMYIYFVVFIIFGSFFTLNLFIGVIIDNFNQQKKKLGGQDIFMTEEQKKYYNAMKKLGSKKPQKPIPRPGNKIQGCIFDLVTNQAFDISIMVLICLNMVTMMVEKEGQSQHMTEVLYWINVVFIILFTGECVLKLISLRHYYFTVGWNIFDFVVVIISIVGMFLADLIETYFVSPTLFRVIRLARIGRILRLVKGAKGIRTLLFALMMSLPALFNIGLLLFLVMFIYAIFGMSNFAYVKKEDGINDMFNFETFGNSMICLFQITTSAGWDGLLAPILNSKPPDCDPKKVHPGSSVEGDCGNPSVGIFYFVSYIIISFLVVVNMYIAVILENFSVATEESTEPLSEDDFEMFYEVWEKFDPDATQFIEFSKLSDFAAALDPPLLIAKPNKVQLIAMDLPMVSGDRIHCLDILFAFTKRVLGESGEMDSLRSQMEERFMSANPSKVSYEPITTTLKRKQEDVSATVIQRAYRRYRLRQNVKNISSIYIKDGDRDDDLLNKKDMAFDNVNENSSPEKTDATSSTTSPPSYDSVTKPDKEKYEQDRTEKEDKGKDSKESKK
# T1 sequence (Q07699 19-218, further chain): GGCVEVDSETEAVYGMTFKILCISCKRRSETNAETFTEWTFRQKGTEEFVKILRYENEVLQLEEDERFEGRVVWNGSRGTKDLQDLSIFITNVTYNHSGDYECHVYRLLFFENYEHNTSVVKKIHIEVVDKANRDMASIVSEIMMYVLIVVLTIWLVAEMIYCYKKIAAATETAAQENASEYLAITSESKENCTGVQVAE
molecule,measurement,setting,value
B1,"Bottom (Boltzmann sigmoidal, best-fit value)",NaV1.7 [1],0.2301
same,"Slope (Boltzmann sigmoidal, best-fit value)",NaV1.7 [1],-7.153
same,"Top (Boltzmann sigmoidal, best-fit value)",NaV1.7 [1],1.031
same,"V50 (Boltzmann sigmoidal, best-fit value)",NaV1.7 [1],-65.56 mV
same,"V50, mean","NaV1.7 [1]; Fig. 6g, NaV1.7/β1/TMEM233, mean of n = 13, NaV1.7/β1 (Mock) mean -59.66, n = 11",-65.18
same,"V50, individual values","NaV1.7 [1]; Fig. 6g, NaV1.7/β1/TMEM233, single replicates",-60.38 and -71.19 and -68.09 and -76.79 and -71.43 and -68.52 and -59.19 and -60.32 and -58.12 and -54.99 and -67.1 and -64.07 and -67.16
same,"V50, difference between means (TMEM233 - Mock) ± SEM","NaV1.7 [1]; Fig. 6g, unpaired t test P = 0.0108, 95% CI -9.637 to -1.412",-5.524 ± 1.983
same,V50 of Activation,"NaV1.7 [2]; Nav1.7/β1/TMEM233, HEK, individual cells, one line each (n = 11)",-31.12 and -24.58 and -26.49 and -27.4 and -28.15 and -19.85 and -25.7 and -20.24 and -36.47 and -27.6 and -24.5
same,"V50 of Activation, mean","NaV1.7 [2]; Nav1.7/β1/TMEM233, HEK, mean, n = 11",-26.55
same,"V50 of Activation, difference between means (B - A) ± SEM","NaV1.7 [2]; Nav1.7/β1/TMEM233 minus Nav1.7/β1 (Mock), unpaired t test, P value 0.8489",-0.4462 ± 2.301
same,"Persistent Current, mean","hNaV1.7/TMEM233; TMEM233 column, toxin not named, mean of n = 16, Control mean -0.0001975, n = 6",-2.01
same,"Persistent Current, individual values","hNaV1.7/TMEM233; TMEM233 column, toxin not named, single replicates",-0.5607 and -1.881 and -2.243 and -3.609 and -4.773 and -1.301 and -2.129 and -2.32 and -2.174 and -2.568 and -0.4229 and -2.1714 and -2.227 and -1.642
same,"Persistent Current, difference between means (TMEM233 - Control) ± SEM","hNaV1.7/TMEM233; unpaired t test P = 0.0003, 95% CI -2.968 to -1.051",-2.010 ± 0.4595
same,"Peak Current, difference between means (COS-1 TMEM233 - COS-1) ± SEM",TMEM233,55.71 ± 37.05
same,"Peak Current, individual values",TMEM233,-254.824 and -273.19 and -178.816 and -233.506 and -232.738 and -200.138
same,"Peak Current, mean",TMEM233,-228.9
same,"Peak current ramp 1 mV/ms, mean","NaV1.7 [3]; NaV1.7-TMEM233, mean of n = 9, NaV1.7 + pcDNA3.1 mean -0.1808, n = 11, analysis title says (+ExTxA)",-0.1202
same,"Peak current ramp 1 mV/ms, individual values","NaV1.7 [3]; NaV1.7-TMEM233, single replicates, analysis title says (+ExTxA)",-0.1309 and -0.159 and -0.09062 and -0.1816 and -0.1566 and -0.06849 and -0.0929 and -0.1073 and -0.09446
same,"Peak current ramp 1 mV/ms, difference between means (TMEM233 - pcDNA3.1) ± SEM","NaV1.7 [3]; unpaired t test P = 0.0914 (ns), 95% CI -0.01079 to 0.1320",0.06063 ± 0.03399
same,"Use-dependence, predicted (LS) mean diff. (NaV1.7 - NaV1.7 + TMEM233)","NaV1.7 [4]; 1 Hz, Šídák's adjusted P >0.9999, 95% CI -0.1024 to 0.1060",0.001783
same,"Use-dependence, predicted (LS) mean diff. (NaV1.7 - NaV1.7 + TMEM233)","NaV1.7 [4]; 2 Hz, Šídák's adjusted P 0.9266, 95% CI -0.07138 to 0.1370",0.0328
same,"Use-dependence, predicted (LS) mean diff. (NaV1.7 - NaV1.7 + TMEM233)","NaV1.7 [4]; 5 Hz, Šídák's adjusted P 0.8365, 95% CI -0.06345 to 0.1449",0.04074
same,"Use-dependence, predicted (LS) mean diff. (NaV1.7 - NaV1.7 + TMEM233)","NaV1.7 [4]; 10 Hz, Šídák's adjusted P 0.4449, 95% CI -0.04066 to 0.1677",0.06353
same,"Use-dependence, predicted (LS) mean diff. (NaV1.7 - NaV1.7 + TMEM233)","NaV1.7 [4]; 20 Hz, Šídák's adjusted P 0.0161 (*), 95% CI 0.01628 to 0.2247",0.1205
same,"Use-dependence, predicted (LS) mean","NaV1.7 [4]; NaV1.7 + TMEM233, 1 Hz, NaV1.7 0.9861, n = 8",0.9843
same,"Use-dependence, predicted (LS) mean","NaV1.7 [4]; NaV1.7 + TMEM233, 2 Hz, NaV1.7 0.9649, n = 8",0.9321
same,"Use-dependence, predicted (LS) mean","NaV1.7 [4]; NaV1.7 + TMEM233, 5 Hz, NaV1.7 0.9335, n = 8",0.8928
same,"Use-dependence, predicted (LS) mean","NaV1.7 [4]; NaV1.7 + TMEM233, 10 Hz, NaV1.7 0.8933, n = 8",0.8298
same,"Use-dependence, predicted (LS) mean","NaV1.7 [4]; NaV1.7 + TMEM233, 20 Hz, NaV1.7 0.8046, n = 8",0.6842
